Test results as given in patent US20230365659A1 (EPSILON MOLECULAR ENGINEERING, published 2023).

Legend:
[1] = biological target: T1, SARS-CoV-2 full-length Spike Recombinant Antigen B.1.617 Mutation (Bio-Serv) (SARS-CoV-2, UniProt P0DTC2 14-1273); assay: ELISA, VHH on nickel plate, spike in solution
T1 construct: Bought

[2] = biological target: SARS-CoV-2 full-length Spike Recombinant Antigen B.1.1.7 Mutation (Bio-Serv) (SARS-CoV-2, UniProt P0DTC2 14-1273); assay: ELISA, VHH on nickel plate, spike in solution (0-500 ng/mL)
[3] = biological target: SARS-CoV-2 (2019-nCoV) spike S1-Fc recombinant protein (Sino Biological, Inc.) (SARS-CoV-2, UniProt P0DTC2 16-685)
[4] = biological target: SARS-CoV-2 full-length Spike Recombinant Antigen B.1.351 Mutation (Bio-Serv) (SARS-CoV-2, UniProt P0DTC2 14-1273); assay: ELISA, VHH on nickel plate, spike in solution (0-500 ng/mL)
[5] = biological target: SARS-CoV-2 full-length Spike Recombinant Antigen P.1 Mutation (Bio-Serv) (SARS-CoV-2, UniProt P0DTC2 14-1273); assay: as above
[6] = biological target: T2, SARS-CoV2 spike RBD variant (SRD-C52H2, Acro Biosystems, N440K) (SARS-CoV-2, UniProt P0DTC2 319-537); assay: BLI (Octet), biotinylated RBD on SA sensor, VHH as analyte, 1:1 fit
T2 construct: domain: RBD

[7] = biological target: T3, SARS-CoV2 spike RBD variant strain (SPD-C52Hp, Acro Biosystems, K417N, E484K, N501Y) (SARS-CoV-2, UniProt P0DTC2 319-537); assay: as above
T3 construct: domain: RBD

[8] = biological target: T4, SARS-CoV-2 spike RBD variant strain (SPD-C52Hn, Acro Biosystems, N501Y) (SARS-CoV-2, UniProt P0DTC2 319-537); assay: as above
T4 construct: domain: RBD

[9] = biological target: T5, SARS-CoV2 spike RBD variant strain (SRD-C52H3, Acro Biosystems, E484K) (SARS-CoV-2, UniProt P0DTC2 319-537); assay: as above
T5 construct: domain: RBD

[10] = biological target: T6, SARS-CoV-2 (2019-nCoV) spike RBD (L452Q, F490S) protein (His Tag) (Sino Biological, Inc.) (SARS-CoV-2, UniProt P0DTC2 319-541); assay: pull-down with VHH-immobilized beads, SDS-PAGE of the eluate
T6 construct: domain: RBD

| Binder | binding result [1] | binding result [2] | absorbance (450 nm) [2] | absorbance (450 nm) [4] | absorbance (450 nm) [5] | Kd [6] [nM] | koff [6] [s⁻¹] | kon [6] [M⁻¹ s⁻¹] | Kd [7] [nM] | koff [7] [s⁻¹] | kon [7] [M⁻¹ s⁻¹] | Kd [8] [nM] | koff [8] [s⁻¹] | kon [8] [M⁻¹ s⁻¹] | Kd [9] [nM] | koff [9] [s⁻¹] | kon [9] [M⁻¹ s⁻¹] | other results |
| --- | --- | --- | --- | --- | --- | --- | --- | --- | --- | --- | --- | --- | --- | --- | --- | --- | --- | --- |
| Bacillus subtilis-derived VHH-COVE4 (VHH) VHH: AEVQLVESGGDVVQPGGSLRLSCAASGFTFTTYAMTWVRQAPGEGLEAVSTISGADGSTYYADSVKGRFTISRDNANNTVYLQMNSLKPEDTAVYYCAATPWYSASHTYWGQGTQVTVSSGGGSHHHHHH | no binding (tested: 500 ng/mL) | binds |  |  |  |  |  |  |  |  |  |  |  |  |  |  |  |  |
| Bacillus subtilis-derived VHH-COVE1 (VHH) VHH: AEVQLVESGGGLVQPGGSLRLSCAASGFAFSSYPMYWVRQAPGKGLEWISFIDGEGTSTSYADSVKGRFTISRDNAKNTVYLQMNSLKPEDTAVYYCNALLRRYNYGFTFDNYWGQGTQVTVSSGGGSHHHHHH | no binding (tested: 500 ng/mL) | binds |  |  |  |  |  |  |  |  |  |  |  |  |  |  |  |  |
| Bacillus subtilis-derived VHH-COVE3 (VHH) VHH: AEVQLVESGGGFVQAGGSLRLSCRVSAPTFMTYTMAWFRQAPGNEREFVAALSKNFVTTSYADSVKGRFTISRDNAKNTVYLQMNSLKPEDTAVYYCNVAWSDYEYLEVWGQGTLVTVSSGGGSHHHHHH |  |  | 0.97 | 0.97 | 0.97 | 15.4 | 0.000448 | 29200 | 265 | 0.0106 | 40000 |  |  |  |  |  |  | Kd [3]: 0.924 nM; koff [3]: 9.75e-05 s⁻¹; kon [3]: 106000 M⁻¹ s⁻¹ |
| Bacillus subtilis-derived VHH-COVE8 (VHH) VHH: EVQLVESGGGLVQPGGSLTLSCAASGQTFSSYNMAWFRQSPGKEREFVATISWGGGSTGYADSVKGRFTISRDHAKNTVYLQMKDLKPEDTGAYYCYLVGLFGIQASDYWGQGTQVTVSS | no binding (tested: 500 ng/mL) |  | 0.97 | 0.97 | 0.97 | < 0.001 | < 1e-07 | 74500 | 239 | 0.0191 | 79900 | 28.8 | 0.00159 | 55300 | 211 | 0.0147 | 69700 |  |
| Bacillus subtilis-derived VHH-COVE9 (VHH) VHH: EVQLVESGGGLVQPGGSLRLSCAASGTIFSTNAMSWYRQAPGKQRELVAAITSGGNTNYADSVKGRFTISRDNAKNTVYLQMNSLKPEDTAVYYCNAPGVVTGSYDVRNYWGQGTQVTVSS | no binding (tested: 500 ng/mL) |  | 0.97 | 0.97 | 0.97 | 12.5 | 0.00258 | 206000 | 10.9 | 0.00159 | 146000 | 6.9 | 0.00267 | 386000 | 9.9 | 0.00307 | 310000 |  |
| VHH-COVE9 (on beads in Example 26, production host not stated) (VHH) VHH: EVQLVESGGGLVQPGGSLRLSCAASGTIFSTNAMSWYRQAPGKQRELVAAITSGGNTNYADSVKGRFTISRDNAKNTVYLQMNSLKPEDTAVYYCNAPGVVTGSYDVRNYWGQGTQVTVSS |  |  |  |  |  |  |  |  |  |  |  |  |  |  |  |  |  | binding result [10]: no binding (tested: 12.5 µg/mL) |
| Bacillus subtilis-derived VHH-COVE5 (VHH) VHH: EVQLVESGGGLVQAGGSLRLSCTASDQIFDNYNMAWFRQSPGKEREFVAALSWGDSNTGYADSVKGRFTISRDNAKNTVYLQMNSLKPEDTAVYYCYAVTWLRGDYWGQGTQVTVSS | no binding (tested: 500 ng/mL) |  | 0.97 | 0.97 | 0.97 | 42.4 | 0.00178 | 42100 | 306 | 0.0625 | 204000 | 11.6 | 0.00106 | 91100 | 626 | 0.0246 | 39200 |  |
| Bacillus subtilis-derived VHH-COVE6 (VHH) VHH: EVQLVESGGGLVQAGGSLRLSCTASGRTWNIASMTWFRQAPGGKERTFVATIKWSDLATYYTDSVKGRFTISRGNSKNTVYLQMNSLKPEDTGVYFCYAITTGSPLLGGGMDFWGKGTLVTVSS | no binding (tested: 500 ng/mL) | binds |  |  |  |  |  |  |  |  |  |  |  |  |  |  |  |  |
| Bacillus subtilis-derived VHH-COVE7 (VHH) VHH: EVQLVESGGGLVQAGDSLRLSCTASGRTFSSCAMGWFRQAPGKEREFVAAISRGGGSTSYADSVKGRFTISKDRARNTAYLEMNSLKPEDTAIYYCYAVFPSGGDYWGQGTQVTVSS | no binding (tested: 500 ng/mL) |  | 0.97 | 0.97 | 0.97 | 24.2 | 0.00113 | 46600 | 93.7 | 0.00398 | 42400 | 24 | 0.00186 | 73300 | 80.2 | 0.00707 | 88100 |  |
| Bacillus subtilis-derived VHH-COVE2 (VHH) VHH: AEVQLVESGGGLVQAGDSLRLSCAATRRTSSTYAMGWFRQAPGKGLEWVAAISWDGGRTYYAESVKGRFTISRDNAKNTVYLQMNSLKPEDTAVYYCYSFGGSDFLMDYWGQGTQVTVSSGGGSHHHHHH | no binding (tested: 500 ng/mL) |  | 0.97 | 0.97 | 0.97 | 2.96 | 0.000491 | 166000 | 90.7 | 0.00529 | 58400 | 4.01 | 0.000438 | 109000 | 34.4 | 0.00365 | 106000 | Kd [3]: 1.2 nM; koff [3]: 8.47e-05 s⁻¹; kon [3]: 70700 M⁻¹ s⁻¹ |
